From article PMC8761493, “New insights into the phosphorylation of the threonine motif of the β1 integrin cytoplasmic domain” (Life Science Alliance, 2022)
Non-standard residues stand in square brackets, D forms with d. No end group written: not given here. pT = C[C@@H](OP(=O)(O)O)[C@H](N)C(=O)O

What was measured:
[1] = molecular target: talin-1 head domain (THD) (UniProt P26039); assay: Microscale thermophoresis (MST) affinity measurement; format: binding; settings: 200 nM Atto488-labeled β1-tail peptide, 20 mM Tris pH 7.5, 200 mM NaCl, 1 mM TCEP, 0.05% Tween-20
Sequence of talin-1 head domain (THD) (P26039 whole entry, the tested form may be a part): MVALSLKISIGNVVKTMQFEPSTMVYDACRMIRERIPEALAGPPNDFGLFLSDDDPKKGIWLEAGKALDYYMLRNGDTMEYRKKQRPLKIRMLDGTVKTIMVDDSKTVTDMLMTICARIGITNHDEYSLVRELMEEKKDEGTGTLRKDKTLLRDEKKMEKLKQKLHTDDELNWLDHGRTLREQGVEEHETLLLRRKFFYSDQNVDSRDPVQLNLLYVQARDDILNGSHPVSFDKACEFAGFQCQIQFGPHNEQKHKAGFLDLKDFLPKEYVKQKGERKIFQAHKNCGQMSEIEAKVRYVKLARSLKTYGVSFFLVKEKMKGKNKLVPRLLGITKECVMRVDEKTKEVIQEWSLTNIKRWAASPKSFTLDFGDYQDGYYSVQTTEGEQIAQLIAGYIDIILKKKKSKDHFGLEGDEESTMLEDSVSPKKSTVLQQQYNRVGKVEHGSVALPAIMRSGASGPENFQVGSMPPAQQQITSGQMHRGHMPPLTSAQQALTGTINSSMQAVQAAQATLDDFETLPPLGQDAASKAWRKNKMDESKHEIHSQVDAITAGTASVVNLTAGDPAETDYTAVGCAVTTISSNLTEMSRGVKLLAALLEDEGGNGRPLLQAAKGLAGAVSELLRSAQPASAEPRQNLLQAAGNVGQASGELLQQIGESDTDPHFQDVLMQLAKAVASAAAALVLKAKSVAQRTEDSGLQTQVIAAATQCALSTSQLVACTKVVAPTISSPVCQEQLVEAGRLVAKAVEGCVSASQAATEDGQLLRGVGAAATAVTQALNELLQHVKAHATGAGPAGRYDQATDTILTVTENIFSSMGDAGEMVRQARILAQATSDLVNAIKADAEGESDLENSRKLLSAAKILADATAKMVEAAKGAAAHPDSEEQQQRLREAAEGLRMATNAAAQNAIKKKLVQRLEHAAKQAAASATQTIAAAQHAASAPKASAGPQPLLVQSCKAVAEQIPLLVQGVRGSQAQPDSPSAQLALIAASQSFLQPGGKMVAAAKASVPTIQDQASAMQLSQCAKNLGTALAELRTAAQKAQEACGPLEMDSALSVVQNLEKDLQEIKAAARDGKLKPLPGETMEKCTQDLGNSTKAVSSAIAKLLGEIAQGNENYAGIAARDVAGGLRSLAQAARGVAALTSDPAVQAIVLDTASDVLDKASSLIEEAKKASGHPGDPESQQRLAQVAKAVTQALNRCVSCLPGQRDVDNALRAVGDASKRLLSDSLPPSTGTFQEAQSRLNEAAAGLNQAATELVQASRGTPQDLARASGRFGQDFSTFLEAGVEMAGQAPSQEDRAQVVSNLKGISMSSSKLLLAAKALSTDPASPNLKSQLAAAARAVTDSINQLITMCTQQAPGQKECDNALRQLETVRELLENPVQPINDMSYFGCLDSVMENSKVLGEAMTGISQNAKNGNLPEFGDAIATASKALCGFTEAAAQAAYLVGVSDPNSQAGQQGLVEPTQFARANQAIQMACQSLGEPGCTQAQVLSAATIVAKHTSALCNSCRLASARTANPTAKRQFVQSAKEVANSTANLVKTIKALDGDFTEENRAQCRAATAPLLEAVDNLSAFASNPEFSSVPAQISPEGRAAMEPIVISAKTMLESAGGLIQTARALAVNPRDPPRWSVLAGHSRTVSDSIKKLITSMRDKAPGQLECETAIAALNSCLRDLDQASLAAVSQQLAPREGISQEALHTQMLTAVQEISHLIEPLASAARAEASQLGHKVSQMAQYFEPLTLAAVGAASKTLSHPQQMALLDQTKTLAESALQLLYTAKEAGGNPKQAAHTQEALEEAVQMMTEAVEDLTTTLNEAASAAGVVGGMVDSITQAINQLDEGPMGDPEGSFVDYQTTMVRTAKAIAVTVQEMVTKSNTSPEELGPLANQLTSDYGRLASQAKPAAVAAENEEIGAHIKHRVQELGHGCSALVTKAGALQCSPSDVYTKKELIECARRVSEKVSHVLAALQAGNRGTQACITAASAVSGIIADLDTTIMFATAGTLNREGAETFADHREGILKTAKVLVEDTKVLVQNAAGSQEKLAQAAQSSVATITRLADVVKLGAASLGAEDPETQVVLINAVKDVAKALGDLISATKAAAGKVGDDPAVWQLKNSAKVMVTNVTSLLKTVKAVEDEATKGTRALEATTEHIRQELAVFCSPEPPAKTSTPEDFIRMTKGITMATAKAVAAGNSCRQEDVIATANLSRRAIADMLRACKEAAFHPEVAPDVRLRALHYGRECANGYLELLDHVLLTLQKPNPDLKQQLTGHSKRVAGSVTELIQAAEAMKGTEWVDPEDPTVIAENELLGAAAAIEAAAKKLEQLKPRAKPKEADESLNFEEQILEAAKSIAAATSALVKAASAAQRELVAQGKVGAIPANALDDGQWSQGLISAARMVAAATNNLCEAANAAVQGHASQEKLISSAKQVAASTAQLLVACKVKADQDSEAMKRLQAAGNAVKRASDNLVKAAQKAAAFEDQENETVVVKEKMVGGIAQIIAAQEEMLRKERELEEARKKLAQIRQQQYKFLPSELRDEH
Description: All MST measurements were performed on a Monolith NT.115 red-blue (Nanotemper) using premium-coated capillaries to reduce non-specific interaction of the proteins with the glass surface. Both interaction partners (ligand and receptor) were transferred into MST buffer (20 mM Tris, pH 7.5, 200 mM sodium chloride, 1 mM tris(2-carboxyethyl)phosphine [TCEP], 0.05% Tween-20) to avoid artifacts derived from buffer mismatches. […] The measurements were carried out at 20% light emitting diode power and 20% and 40% MST power. Data were analyzed using the MO Affinity Analysis Software (Nanotemper).

endogenous SNX17 = assay: Peptide pull-down from whole cell lysate, Western blot; format: binding; settings: Western blot, n = 5
Description: (§1) Before use, peptides were immobilized on 25 μl Dynabeads MyOne Streptavidin C1 (10 mg/ml; Invitrogen) in Mammalian Protein Extraction Reagent (Thermo Fisher Scientific) containing protease inhibitors (cOmplete; Roche) and phosphatase inhibitors (Phosphatase Inhibitor Cocktail 2 and 3; Sigma-Aldrich) for 3 h at 4°C. Cell lysates were prepared with MPER containing protease and phosphatase inhibitors and 0.5 mg of supernatant was incubated with the peptide-coated beads at 4°C under constant rotation. For pull-downs with recombinant proteins, synthetic β1 integrin tail peptides were immobilized on 25 μl Dynabeads MyOne Streptavidin C1 (10 mg/ml; Invitrogen) for 3 h at 4°C, incubated with 2% BSA in Mammalian Protein Extraction Reagent (Thermo Scientific Scientific) for 30 min at 4°C to block unspecific binding before adding kindlin-2 or THD (conc 2.5 and 8.5 nM, respectively) and further incubation on a rotator for 2 h at 4°C. After washing the beads three times with lysis buffer, the proteins bound to the beads were eluted using Laemmli buffer, separated on a 10% SDS–PAGE, and analyzed by Western blotting.

endogenous kindlin-2 = assay: as above; format: binding; settings: Western blot, n = 5
Description: as §1

kindlin-2 = molecular target: T1, kindlin-2 (Homo sapiens, UniProt Q96AC1); assay: Microscale thermophoresis (MST) affinity measurement; format: binding; settings: 200 nM Atto488-labeled β1-tail peptide, 20 mM Tris pH 7.5, 200 mM NaCl, 1 mM TCEP, 0.05% Tween-20
T1 sequence (Q96AC1 1-680): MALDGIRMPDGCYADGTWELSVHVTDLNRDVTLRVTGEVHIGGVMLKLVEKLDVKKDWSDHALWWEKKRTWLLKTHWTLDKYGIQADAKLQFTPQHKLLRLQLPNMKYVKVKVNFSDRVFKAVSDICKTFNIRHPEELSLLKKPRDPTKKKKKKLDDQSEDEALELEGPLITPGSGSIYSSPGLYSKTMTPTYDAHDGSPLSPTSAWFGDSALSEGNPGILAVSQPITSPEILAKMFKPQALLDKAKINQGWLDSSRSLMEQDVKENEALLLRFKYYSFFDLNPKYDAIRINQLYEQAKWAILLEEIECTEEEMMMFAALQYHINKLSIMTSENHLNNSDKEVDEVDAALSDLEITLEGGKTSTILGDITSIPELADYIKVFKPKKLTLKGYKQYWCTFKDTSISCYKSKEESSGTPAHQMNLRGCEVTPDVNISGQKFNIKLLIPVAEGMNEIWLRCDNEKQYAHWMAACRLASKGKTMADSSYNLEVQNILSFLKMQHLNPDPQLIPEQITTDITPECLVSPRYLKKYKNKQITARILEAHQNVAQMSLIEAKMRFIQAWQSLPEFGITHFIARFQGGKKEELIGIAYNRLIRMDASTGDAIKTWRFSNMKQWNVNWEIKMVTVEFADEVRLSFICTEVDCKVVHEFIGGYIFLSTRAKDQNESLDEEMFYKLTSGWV

[2] = tested on: anti-β1-pTpT integrin antibody (Abcam); assay: Integrin peptide ELISA (direct ELISA, immobilized tail peptides); format: binding; settings: antibody dilution range 1:500 to 1:10,000 (Fig 1E)
Description: (§2) The plates were blocked with 200 μl PBS containing 3% BSA for 1 h at room temperature and then washed thrice with 200 μl PBS. Different dilutions of the anti–β1-pTpT antibodies (Thermo Fisher Scientific and Abcam) in 100 μl PBS supplemented with 3% BSA were incubated for 2 h at room temperature. After washing thrice with 200 μl PBS, 100 μl of anti-rabbit-IgG HRP-conjugate was added (1:10,000 in PBS supplemented with 3% BS) and incubated for 1 h at room temperature. The plates were washed thrice with 200 μl PBS, developed with 100 μl of ABTS substrate solution (1-Step ABTS; Thermo Fisher Scientific) before measuring absorbance at λ = 405 nm in a SpectraMax ABS Plus plate reader (Molecular Devices).

[3] = tested on: anti-β1-pTpT integrin antibody (Thermo Fisher Scientific); assay: as above; format: binding; settings: antibody dilution range 1:500 to 1:10,000 (Fig 1D)
Description: as §2

FNIII7-10^RGD = assay: AFM-based single-cell force spectroscopy (binding probability); single fibroblast on a concanavalin A-coated cantilever brought onto glass coated with 50 μg/ml FN fragment; contact force 200 pN, contact time ~300 ms, 37°C, 1 μM cilengitide
FNIII7-10^ΔRGD = assay: as above
[4] = molecular target: T2, recombinant talin-1 head domain (THD); assay: MST
T2 chain: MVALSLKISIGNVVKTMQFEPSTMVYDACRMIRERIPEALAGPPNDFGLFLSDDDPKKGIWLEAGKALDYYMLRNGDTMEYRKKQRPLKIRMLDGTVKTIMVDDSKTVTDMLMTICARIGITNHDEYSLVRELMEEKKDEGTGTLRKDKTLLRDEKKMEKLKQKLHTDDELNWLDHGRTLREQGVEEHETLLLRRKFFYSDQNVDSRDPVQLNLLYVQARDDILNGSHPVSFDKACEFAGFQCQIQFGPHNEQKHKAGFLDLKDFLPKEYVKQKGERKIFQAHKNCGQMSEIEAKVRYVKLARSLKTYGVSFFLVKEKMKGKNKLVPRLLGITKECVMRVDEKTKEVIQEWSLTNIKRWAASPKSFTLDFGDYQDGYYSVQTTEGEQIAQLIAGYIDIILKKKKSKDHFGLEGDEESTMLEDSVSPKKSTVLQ

recombinant kindlin-2 = molecular target: T3, recombinant kindlin-2 (UniProt Q8CIB5 1-680); assay: MST
T3 chain: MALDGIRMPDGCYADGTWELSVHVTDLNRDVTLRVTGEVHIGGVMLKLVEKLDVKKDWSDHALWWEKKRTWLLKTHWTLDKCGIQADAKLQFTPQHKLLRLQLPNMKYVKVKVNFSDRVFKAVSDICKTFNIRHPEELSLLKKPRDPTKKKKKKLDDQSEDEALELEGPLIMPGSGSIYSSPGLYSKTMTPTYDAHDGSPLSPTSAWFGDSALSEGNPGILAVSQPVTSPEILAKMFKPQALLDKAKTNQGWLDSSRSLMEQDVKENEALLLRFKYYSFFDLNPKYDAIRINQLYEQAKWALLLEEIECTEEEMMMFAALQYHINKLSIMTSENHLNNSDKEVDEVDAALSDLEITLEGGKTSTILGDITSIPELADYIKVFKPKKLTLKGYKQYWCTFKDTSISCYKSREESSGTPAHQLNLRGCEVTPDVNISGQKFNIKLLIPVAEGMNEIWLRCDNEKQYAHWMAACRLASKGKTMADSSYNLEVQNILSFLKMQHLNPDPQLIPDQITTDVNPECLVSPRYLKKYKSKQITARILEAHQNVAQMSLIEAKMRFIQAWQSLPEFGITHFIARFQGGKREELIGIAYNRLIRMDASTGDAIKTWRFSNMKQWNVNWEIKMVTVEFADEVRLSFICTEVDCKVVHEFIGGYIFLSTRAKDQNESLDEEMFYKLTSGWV

Sequence of β1-TT/AA integrin on β1-KO fibroblasts (P09055 whole entry, looked up): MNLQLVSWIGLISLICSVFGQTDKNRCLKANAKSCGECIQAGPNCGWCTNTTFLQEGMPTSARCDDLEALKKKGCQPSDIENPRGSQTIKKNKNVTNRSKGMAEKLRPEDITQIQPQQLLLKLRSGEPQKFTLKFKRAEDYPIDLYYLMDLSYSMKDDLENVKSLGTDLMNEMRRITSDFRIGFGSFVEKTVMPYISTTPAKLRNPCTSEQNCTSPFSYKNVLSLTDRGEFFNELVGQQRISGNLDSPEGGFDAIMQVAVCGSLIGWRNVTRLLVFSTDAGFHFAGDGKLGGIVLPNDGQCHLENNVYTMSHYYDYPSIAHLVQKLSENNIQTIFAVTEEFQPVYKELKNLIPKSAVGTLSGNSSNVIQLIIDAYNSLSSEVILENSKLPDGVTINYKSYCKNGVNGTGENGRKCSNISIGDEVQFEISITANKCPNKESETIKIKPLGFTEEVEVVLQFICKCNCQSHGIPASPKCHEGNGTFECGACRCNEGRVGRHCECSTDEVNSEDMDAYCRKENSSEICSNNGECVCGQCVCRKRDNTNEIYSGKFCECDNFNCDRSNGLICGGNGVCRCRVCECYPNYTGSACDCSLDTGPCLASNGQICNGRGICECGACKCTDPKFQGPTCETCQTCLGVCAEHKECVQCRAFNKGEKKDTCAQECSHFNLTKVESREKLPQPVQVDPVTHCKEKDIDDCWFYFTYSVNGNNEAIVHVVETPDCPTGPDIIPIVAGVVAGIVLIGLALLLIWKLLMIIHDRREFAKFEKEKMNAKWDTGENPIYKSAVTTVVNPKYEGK
Sequence of β1-TT/DD integrin on β1-KO fibroblasts (P09055 whole entry, looked up): as above
Sequence of β1-TT/EE integrin on β1-KO fibroblasts (P09055 whole entry, looked up): as above

## CC[C@H](C)[C@H](NC(=O)[C@@H]1CCCN1C(=O)[C@H](CC(N)=O)NC(=O)[C@H](CCC(=O)O)NC(=O)CNC(=O)[C@@H](NC(=O)[C@H](CC(=O)O)NC(=O)[C@H](Cc1c[nH]c2ccccc12)NC(=O)[C@H](CCCCN)NC(=O)[C@H](C)NC(=O)[C@H](CC(N)=O)NC(=O)[C@H](CCSC)NC(=O)[C@H](CCCCN)NC(=O)[C@H](CCC(=O)O)NC(=O)[C@H](CCCCN)NC(=O)[C@H](CCC(=O)O)NC(=O)[C@H](Cc1ccccc1)NC(=O)[C@H](CCCCN)NC(=O)[C@H](C)NC(=O)[C@H](Cc1ccccc1)NC(=O)[C@H](CCC(=O)O)NC(=O)[C@H](CCCNC(=N)N)NC(=O)[C@H](CCCNC(=N)N)NC(=O)[C@H](CC(=O)O)NC(=O)[C@@H](N)Cc1c[nH]cn1)[C@@H](C)O)C(=O)N[C@@H](Cc1ccc(O)cc1)C(=O)N[C@@H](CCCCN)C(=O)N[C@@H](CO)C(=O)N[C@@H](C)C(=O)N[C@H](C(=O)N[C@H](C(=O)N[C@H](C(=O)N[C@H](C(=O)N[C@H](C(=O)N[C@@H](CC(N)=O)C(=O)N1CCC[C@H]1C(=O)N[C@@H](CCCCN)C(=O)N[C@@H](Cc1ccc(O)cc1)C(=O)N[C@@H](CCC(=O)O)C(=O)NCC(=O)N[C@@H](CCCCN)C(=O)O)C(C)C)C(C)C)[C@@H](C)O)[C@@H](C)O)C(C)C [β1-WT]
[1]
  Kd: 140 ± 20 µM

## EYEFEPDKVDTGAKGTKMAKNEKKFRNYTVHNIWESRKVAP-OH [scrambled, scrambled β1 integrin cytoplasmic tail peptide used as control, reference compound]
Endogenous SNX17
  SNX17 binding to the peptide (in words): lost
Endogenous kindlin-2
  kindlin-2 binding to the peptide (in words): lost

## HDRREFAKFEKEKMNAKWDTGENPIAKSAVTTVVNPKYEGK [β1-Y783A]
kindlin-2
  Kd: 4.9 ± 0.7 µM

## HDRREFAKFEKEKMNAKWDTGENPIYKSAVAAVVNPKYEGK [β1-TT/AA]
[1]
  Kd: 100 ± 15 µM
kindlin-2
  Kd: 151 ± 1 µM

## KWDTGENPIYKEAVpTpTFTVDFTFNKFNPKYEGK-OH [β3/β5-pTpT, chimeric β3/β5-pTpT peptide]
[2]
  binding of the anti-β1-pTpT antibody to the immobilized peptide (in words): detected binding
[3]
  binding of the anti-β1-pTpT antibody to the immobilized peptide (in words): detected binding

## LLQEKGGYIPSGPIpTpTIHENEVVKSPSQPG-OH [Wwc2-pTpT, unrelated peptide with a bi-phosphorylated double-threonine motif derived from the cytosolic scaffolding protein Wwc2]
[2]
  binding of the anti-β1-pTpT antibody to the immobilized peptide (in words): detected binding
[3]
  binding of the anti-β1-pTpT antibody to the immobilized peptide (in words): detected binding

## β1-TT/AA integrin on β1-KO fibroblasts (from UniProt P09055 21-798) (receptor)
FNIII7-10^RGD
  percent of binding probability experiments with multiple unbinding events: 7.7%
FNIII7-10^ΔRGD
  percent of binding probability experiments with more than one unbinding event: < 3%

## β1-TT/DD integrin on β1-KO fibroblasts (from UniProt P09055 21-798) (receptor)
FNIII7-10^RGD
  percent of binding probability experiments with multiple unbinding events: 3.8%
FNIII7-10^ΔRGD
  percent of binding probability experiments with more than one unbinding event: < 3%

## β1-TT/EE integrin on β1-KO fibroblasts (from UniProt P09055 21-798) (receptor)
FNIII7-10^RGD
  percent of binding probability experiments with multiple unbinding events: 4.6%
FNIII7-10^ΔRGD
  percent of binding probability experiments with more than one unbinding event: < 3%

## β1-WT integrin on β1-KO fibroblasts (β1-class integrins) (from UniProt P09055 21-798) (receptor)
FNIII7-10^RGD
  percent of binding probability experiments with multiple unbinding events: 32.3%
FNIII7-10^ΔRGD
  percent of binding probability experiments with more than one unbinding event: < 3%

## HDRREFAKFEKEKMNAKWDTGENPIYKSAVDDVVNPKYEGK (also: Atto488 label, position not given here) [β1-TT/DD peptide, Atto488-labeled]
[4]
  Kd: 170 µM

## HDRREFAKFEKEKMNAKWDTGENPIAKSAVTTVVNPKYEGK (also: Atto488 label, position not given here) [β1-Y783A peptide, Atto488-labeled]
Recombinant kindlin-2
  Kd: 4.9 µM

## HDRREFAKFEKEKMNAKWDTGENPIYKSAVAAVVNPKYEGK (also: Atto488 label, position not given here) [β1-TT/AA peptide, Atto488-labeled]
[4]
  Kd: 100 µM
Recombinant kindlin-2
  Kd: 151 µM

## HDRREFAKFEKEKMNAKWDTGENPIYKSAVTTVVNPKYEGK (also: Atto488 label, position not given here) [β1-WT peptide, Atto488-labeled]
[4]
  Kd: 140 µM

## HDRREFAKFEKEKMNAKWDTGENPIYKSAV[pT][pT]VVNPKYEGK (also: Atto488 label, position not given here) [β1-pTpT peptide, Atto488-labeled]
[4]
  Kd: 140 µM
